Assay [1] addresses T1, human MASP-2A (catalytically inactive human MASP-2, Ser618 to Ala618) (human, UniProt O00187 16-686).
T1 construct: the ELISA and Biacore methods say only 'MASP-2A', so a tag may have been present; also called huMASP2A; huMASP-2A
Kind of assay: Biacore, microscale-expressed scFv on MASP-2A coated CM5 chip. The procedure: Therefore, three different scFv libraries were constructed by PCR where the amino acid positions 1, 2 and 3 were randomized to the set of all possible 20 amino acids using degenerate codons. After cloning the libraries, microscale expression was performed and scFv binding was monitored on a MASP-2A coated CM5 chip (not shown).
On the technique in general: SPR reads the build-up and loss of mass on a sensor chip optically.

Assay [2] has as its target T2, human MASP-2 (human, UniProt O00187 16-686). The experiment in a line: cell-based or functional assay.
Assay [3] deals with T1, human MASP-2A (catalytically inactive …). The experiment in a line: titration ELISA on coated human MASP-2A ('Binding affinity'), F(ab′)2. The procedure:
The clones were then purified and re-tested in an ELISA and activity assay as follows. Human MASP-2A was coated at 3 μg/ml in PBS on a maxisorp plate, IgG (45 μg/ml) and Fab′2 (30 μg/ml) were diluted in PBS-Tween to a starting concentration of 300 nM, and further with 3-fold dilutions. IgGs were detected with HRP conjugated Goat α-Human IgG (Southern Biotech) and the F(ab′)2 were detected with HRP-conjugated Goat α-Human IgG H+L (Pierce 31412). The reaction was developed with TMB substrate and stopped with 2M H₂SO₄.
On the technique in general: An ELISA detects its analyte on a solid surface through an enzyme-linked reagent.

Assay [4] concerns the target T2, human MASP-2. The experiment in a line: cell-based or functional assay. This is another data set of the same source.
For assay [5], the target named is T2, human MASP-2. Kind of assay: cell-based or functional assay. The source holds these as a separate data set.
Assay [6] addresses T3, African Green monkey MASP-2 (in African Green monkey serum) (African Green monkey). Kind of assay: cell-based or functional assay.
The target of assay [7] is T2, human MASP-2. Kind of assay: cell-based or functional assay. This is another data set of the same source.
Assay [8] has as its target T3, African Green monkey MASP-2 (in African …). Kind of assay: cell-based or functional assay. The source holds these as a separate data set.
The target of assay [9] is T2, human MASP-2. The experiment in a line: cell-based or functional assay. The source holds these as a separate data set.
Assay [10] has as its target T2, human MASP-2. Kind of assay: cell-based or functional assay. The source holds these as a separate data set.
In assay [11] the target is rat MASP-2 (in rat serum) (rat, UniProt Q9JJS8 20-685). Kind of assay: cell-based or functional assay.
rat MASP-2 (in rat serum), sequence (Q9JJS8 other isoform, or with tags, fused parts or gaps limits assumed): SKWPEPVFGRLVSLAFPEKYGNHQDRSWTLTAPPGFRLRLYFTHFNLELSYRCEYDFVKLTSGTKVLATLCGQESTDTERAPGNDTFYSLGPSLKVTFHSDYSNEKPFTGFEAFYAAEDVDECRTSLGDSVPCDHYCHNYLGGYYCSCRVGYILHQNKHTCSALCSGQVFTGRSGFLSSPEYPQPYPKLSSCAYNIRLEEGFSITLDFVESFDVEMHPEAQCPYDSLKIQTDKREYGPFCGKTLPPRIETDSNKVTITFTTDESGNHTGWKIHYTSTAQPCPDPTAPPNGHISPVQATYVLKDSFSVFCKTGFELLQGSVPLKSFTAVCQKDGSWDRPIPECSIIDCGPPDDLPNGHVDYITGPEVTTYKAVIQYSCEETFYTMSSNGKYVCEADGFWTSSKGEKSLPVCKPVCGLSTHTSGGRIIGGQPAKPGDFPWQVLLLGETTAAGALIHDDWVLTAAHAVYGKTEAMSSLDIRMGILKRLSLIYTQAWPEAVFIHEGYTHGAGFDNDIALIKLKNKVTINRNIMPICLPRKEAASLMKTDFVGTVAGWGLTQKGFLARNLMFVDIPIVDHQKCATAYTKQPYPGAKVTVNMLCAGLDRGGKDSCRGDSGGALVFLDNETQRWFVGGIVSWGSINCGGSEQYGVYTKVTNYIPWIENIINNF
Assay [12] has as its target T3, African Green monkey MASP-2 (in African …). Kind of assay: cell-based or functional assay. This is another data set of the same source.
In assay [13] the target is T2, human MASP-2. Kind of assay: cell-based or functional assay. This is another data set of the same source.
For assay [14], the target named is T1, human MASP-2A (catalytically inactive …). Kind of assay: ELISA on adsorbed human MASP-2A, purified scFv monomer.
For assay [15] the target is unchanged. Kind of assay: titration ELISA on coated human MASP-2A ('Binding affinity'), scFv.
Assay [16] shares this target. The experiment in a line: SPR (Biacore), scFv captured by anti-cMyc antibody, MASP-2A in solution.
For assay [17] the target is unchanged. Kind of assay: ELISA, purified scFv titrated on physically adsorbed human MASP-2A.
Assay [18] shares this target. The experiment in a line: SPR (Biacore), MASP-2A amine coupled to CM5 chip, scFv monomer in solution.
Assay [19] has the same target. The experiment in a line: SPR (Biacore), scFv captured by anti-cMyc antibody, MASP-2A in solution; MASP-2 in solution, scFv captured (not immobilized MASP-2).

By Kd is commonly meant the constant that tells how readily two partners part at equilibrium. Broadly, the EC50 (read off the curve) is the concentration at which the effect is half-maximal.

T1 sequence (O00187 16-686 S633A): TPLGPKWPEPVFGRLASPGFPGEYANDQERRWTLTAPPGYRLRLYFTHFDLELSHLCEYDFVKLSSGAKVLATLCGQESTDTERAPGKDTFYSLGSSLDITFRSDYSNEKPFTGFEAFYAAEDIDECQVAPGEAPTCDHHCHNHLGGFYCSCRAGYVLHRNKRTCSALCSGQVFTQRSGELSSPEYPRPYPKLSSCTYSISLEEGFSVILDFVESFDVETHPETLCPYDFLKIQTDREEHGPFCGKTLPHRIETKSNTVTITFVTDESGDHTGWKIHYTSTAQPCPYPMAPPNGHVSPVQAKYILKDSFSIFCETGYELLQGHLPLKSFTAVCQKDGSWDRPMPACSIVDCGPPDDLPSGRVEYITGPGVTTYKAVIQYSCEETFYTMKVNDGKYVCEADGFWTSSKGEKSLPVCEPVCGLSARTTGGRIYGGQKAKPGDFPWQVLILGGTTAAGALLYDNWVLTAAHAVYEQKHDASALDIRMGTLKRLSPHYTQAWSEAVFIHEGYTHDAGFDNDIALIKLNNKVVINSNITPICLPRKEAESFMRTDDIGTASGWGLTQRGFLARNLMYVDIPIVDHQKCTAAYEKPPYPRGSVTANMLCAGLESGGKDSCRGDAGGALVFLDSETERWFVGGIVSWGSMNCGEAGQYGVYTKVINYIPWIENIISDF
T2 sequence (O00187 16-686): as the sequence (O00187 16-686 S633A) above, with A618S counted along it

B1: scFv mutagenesis clone #90 of 17D20 (scFv)
scFv: QVTLKESGPVLVKPTETLTLTCTVSGFSLSRGKMGVSWIRQPPGKALEWLAHIFSSDEKSYRTSLKSRLTISKDTSKNQVVLTMTNMDPVDTATYYCARIRPGGIDYWGQGTLVTVSSKLSGSASAPKLEEGEFSEARVQPVLTQPPSVSVSPGQTASITCSGDKLGDKFAYWYQQKPGHSPVLVIYQDNKRPSGIPGRFSGSNSGNTATLTISGTQAMDEADYYCQAWDSSTAVFGTGTKVTVLAAAGSEQKLISEEDLNSHHHHHH
Consider B1, for which the binding result in assay [1] is listed as “binds”.

B2: 17D20 mother clone, F(ab′)2 format (Fab, V domains shown)
VH: QVTLKESGPVLVKPTETLTLTCTVSGFSLSRGKMGVSWIRQPPGKALEWLAHIFSSDEKSYRTSLKSRLTISKDTSKNQVVLTMTNMDPVDTATYYCARIRAGGIDYWGQGTLVTVSS
VL: QPVLTQPPSVSVSPGQTASITCSGDKLGDKFAYWYQQKPGHSPVLVIYQDNKRPSGIPGRFSGSNSGNTATLTISGTQAMDEADYYCQAWDSSTAVFGTGTKVTVLA
notes: also called 17D20 F(ab′)2
Consider B2, for which, in the assay with human MASP-2 [2], the “C3 convertase assay using 1% human serum, IC50 (first experiment)” value was 7.3 nM and the “C3 convertase assay using 1% human serum, IC50 (second experiment)” value stood at 13.5 nM. Moreover, the Kd in assay [3] came out at 0.181 nM.

B3: scFv mother clone 17N16 (scFv)
scFv: QVQLQQSGPGLVKPSQTLSLTCAISGDSVSSTSAAWNWIRQSPSRGLEWLGRTYYRSKWYNDYAVSVKSRITINPDTSKNQFSLQLNSVTPEDTAVYYCARDPFGVPFDIWGQGTMVTVSSKLSGSASAPKLEEGEFSEARVSYVLTQPPSVSVAPGQTARITCGGNNIGSKNVHWYQQKPGQAPVLVVYDDSDRPSGIPERFSGSNSGNTATLTVSRVEAGDEADYYCQVWDTTTDHVVFGGGTKLTVLAAAGSEQKLISEEDLNSHHHHHH
notes: also called 17N16mc; 17N16m
For B3, in the assay with human MASP-2 [4], the “Inhibitory activity in Human Serum IC50 (C3b deposition, 0.5% human serum)” value was determined as 15.4 nM. Also, in the assay with human MASP-2 [5], the “Functional IC50, C3b deposition, human serum Exp #1” value was 15.4 nM; the “Functional IC50, C3b deposition, human serum Exp #2” value is 65.4 nM; the “Functional IC50, C3b deposition, human serum Exp #3” value was found to be 24.8 nM; the “Functional IC50, C3b deposition, human serum Exp #4” value is 19.2 nM. In assay [6], the “Functional IC50, C3b deposition, non-human primate serum Exp #1” value was 95.6 nM and the “Functional IC50, C3b deposition, non-human primate serum Exp #2” value came out at 58.8 nM. In the assay with human MASP-2 [7], the “C3 Assay IC50 in dilute serum (1%), human serum Exp #1” value turned out to be 19 nM; the “C3 Assay IC50 in dilute serum (1%), human serum Exp #2” value came to 24 nM; the “C3 Assay IC50 in dilute serum (1%), human serum Exp #3” value is 65 nM; the “C3 Assay IC50 in dilute serum (1%), human serum mean” value came out at 36 nM. Also, in assay [8], the “C3 Assay IC50, non-human primate serum Exp #1” value amounted to 95 nM; the “C3 Assay IC50, non-human primate serum Exp #2” value came out at 58 nM; the “C3 Assay IC50, non-human primate serum mean” value turned out to be 76 nM. For the same molecule, in the assay with human MASP-2 [2], the “C3 convertase assay using 1% human serum, IC50 (first experiment)” value amounted to 36.2 nM and the “C3 convertase assay using 1% human serum, IC50 (second experiment)” value was 77.6 nM. Moreover, in the assay with human MASP-2 [9], the “Complement assay IC50” value is 8.8 nM. For the same molecule, in the assay with human MASP-2 [10], the “IC50, C3c release, 1% human serum (first experiment)” value turned out to be 65.3 nM and the “IC50, C3c release, 1% human serum (second experiment)” value turned out to be 73.5 nM. In assay [11], the “IC50, C3c release, 0.375% rat serum (second experiment)” value was determined as 196 nM. In [12], the “IC50, C3c release, 0.2% African Green serum (first experiment)” value stood at 92.9 nM and the “IC50, C3c release, 0.2% African Green serum (second experiment)” value is 81.4 nM. Also, the “1% human serum C3 assay IC50” value in the assay with human MASP-2 [13] amounted to 68 nM. For the same molecule, the Kd in [14] was determined as 18.9 nM. In assay [15], binding was characterised by a dissociation constant (Kd) of 18.9 nM. For the same molecule, the Kd in assay [16] worked out at 1.68 nM. Further, the “EC50 (read off the curve)” value in assay [17] was ~0.9 nM. In assay [18], the dissociation constant Kd amounted to 3560 nM.

B4: scFv daughter clone 17N16m_d17N9 (scFv)
scFv: QVQLQQSGPGLVKPSQTLSLTCAISGDSVSSTSAAWNWIRQSPSRGLEWLGRTYYRSKWYNDYAVSVKSRITINPDTSKNQFSLQLNSVTPEDTAVYYCARDPFGVPFDIWGQGTMVTVSSKLSGSASAPKLEEGEFSEARVSYELIQPPSVSVAPGQTATITCAGDNLGKKRVHWYQQRPGQAPVLVIYDDSDRPSGIPDRFSASNSGNTATLTITRGEAGDEADYYCQVWDIATDHVVFGGGTKLTVLAAAGSEQKLISE
notes: also called 17N9 daughter clone
With B4, the “Complement assay IC50” value with human MASP-2 [9] is 10.3 nM. Moreover, in the assay with human MASP-2 [10], the “IC50, C3c release, 1% human serum (first experiment)” value was 39.9 nM and the “IC50, C3c release, 1% human serum (second experiment)” value amounted to 57.7 nM. In addition, in assay [11], the “IC50, C3c release, 0.375% rat serum (first experiment)” value turned out to be 79.3 nM and the “IC50, C3c release, 0.375% rat serum (second experiment)” value stood at 141 nM. Also, in assay [12], the “IC50, C3c release, 0.2% African Green serum (first experiment)” value turned out to be 63.8 nM and the “IC50, C3c release, 0.2% African Green serum (second experiment)” value was determined as 81.1 nM. Also, in the assay with human MASP-2 [13], the “1% human serum C3 assay IC50” value came to 48 nM, the “90% human serum C3 assay IC50” value was 15 nM and the “90% human serum C4 assay IC50” value was found to be 230 nM. Also, the dissociation constant Kd in [14] came out at 48.6 nM. The “EC50 (read off the curve)” value in assay [17] was ~0.8 nM.

B5: scFv mother clone 4D9 (scFv)
scFv: QITLKESGPVLVKPTETLTLTCTVSGFSLSNARMGVSWIRQPPGKALEWLAHIFSNDEKSYSTSLKSRLTISKDTSKSQVVLTMTNMDPVDTATYYCARMRYSSSLYGMDVWGQGTRVTVSSKLSGSASAPKLEEGEFSEARVSYELIQPPSVSVSPGQTASITCSGDKLGDKYVSWYQQKPGRSPVLVIYRDTKRPSGIPERFSGSNSGNTATLTISGTQAMDEADYYCQAWDSSTVVFGGGTKLTVLAAAGSEQKLISEEDLNSHHHHHH
notes: also called 4D9 (18L16)
With B5, the “Inhibitory activity in Human Serum IC50 (C3b deposition, 0.5% human serum)” value in the assay with human MASP-2 [4] worked out at 22 nM. Further, in the assay with human MASP-2 [5], the “Functional IC50, C3b deposition, human serum Exp #1” value worked out at 22 nM; the “Functional IC50, C3b deposition, human serum Exp #2” value stood at 46.3 nM; the “Functional IC50, C3b deposition, human serum Exp #3” value worked out at 62.2 nM; the “Functional IC50, C3b deposition, human serum Exp #4” value came to 38.4 nM. Also, in assay [6], the “Functional IC50, C3b deposition, non-human primate serum Exp #1” value is 115 nM and the “Functional IC50, C3b deposition, non-human primate serum Exp #2” value was determined as 203 nM. Moreover, the Kd in assay [18] was found to be 8.4 nM. In assay [19], the Kd is 0.02 nM.

(Values after US20170088632A1 (OMEROS, published 2017).)
